Results taken from publication PMC3035719.
pKd: −log10 of the molar value.

Assays:
[1] = target: MBP-DGKδSAM-H38A/V52E; assay: SPR
[2] = target: MBP-DGKδSAM-V52E (UniProt Q16760); assay: SPR

pKd [1]: 4.64
pKd [2]: 4.91
Substance: MBP-DGKδSAM-E35G (domain or fragment)
